# Data taken from patent US5627154A, “Calcium channel blocking polypeptides from Heteropoda venatoria” (Pfizer Inc., priority 1995, dated 1997).
# Where no end group is shown, it is not given here.
# Target: calcium channels
# Conditions: not given
row,Molecule,IC50 for blocking calcium channels (decrease in fura2 fluorescence)
1,"DDCGGLFSGCDSNADCCEGYVCRLWCKYKL-NH2 (not fully specified (bridges); also: 3 disulfide bonds, pairing not given here) [Heteropoda peptide AU 2]",< 3000 nM
2,"DCGTIWHYCGTDQSECCEGWKCSRQLCKYVIDW-NH2 (not fully specified (bridges); also: 3 disulfide bonds, pairing not given here) [Heteropoda peptide AU 3]",< 3000 nM
3,"DDDCGWIMDDCTSDSDCCPNWVCSKTGFVKNICKYEM-NH2 (not fully specified (bridges); also: 3 disulfide bonds, pairing not given here) [Heteropoda peptide AU 5A]",< 3000 nM
4,"ADCGWLFHSCESNADCCENWACATTGRFRYLCKYQI-NH2 (not fully specified (bridges); also: 3 disulfide bonds, pairing not given here) [Heteropoda peptide AU 5B]",< 3000 nM
5,"ECGTLFSGCSTHADCCEGFICKLWCRYERTW-NH2 (not fully specified (bridges); also: 3 disulfide bonds, pairing not given here) [Heteropoda peptide AU 5C]",< 3000 nM
6,"DDCGTLFSGCDTSKDCCEGYVCHLWCKYK-NH2 (not fully specified (bridges); also: 3 disulfide bonds, pairing not given here) [Heteropoda peptide KJ 1]",< 3000 nM
7,"DCGTIWHYCGTDQSECCEGWKCSRQLCKYVIDW-NH2 (not fully specified (bridges); also: 3 disulfide bonds, pairing not given here) [Heteropoda peptide KJ 5]",< 3000 nM
8,DDCGKLFSGCDTNADCCEGYVCRLWCKLDW-NH2 (disulfide (positions not given here)) [Heteropoda peptide KJ 6],< 3000 nM
9,ECGTLFSGCSTHADCCEGFICKLWCRYERTW-NH2 (disulfide (positions not given here)) [Heteropoda peptide KJ 7],< 3000 nM

# Test system: calcium channels
# Conditions: read-out: IC50 values for blocking calcium channels; cerebellar granule cells from 8 day old rats, fura2 fluorescence, 37° C.
row,Molecule,IC50
1,COc1ccc(CCN(C)CCCC(C#N)(c2ccc(OC)c(OC)c2)C(C)C)cc1OC (stereo not shown) [Verapamil],4800 nM
